Reference: patent US6268347A, “Prosaposin-derived peptides” (Regents of the University of CA, priority 1999, dated 2001)
Where a SMILES comes first, the peptide text is derived from it. [ ]: non-standard residue; d: D form.

B1: Prosaposin: 517 amino acid protein, precursor of four sphingolipid activator proteins (saposins A, B, C, D) (protein, UniProt P07602 1-524, looked up)
chain: MYALFLLASLLGAALAGPVLGLKECTRGSAVWCQNVKTASDCGAVKHCLQTVWNKPTVKSLPCDICKDVVTAAGDMLKDNATEEEILVYLEKTCDWLPKPNMSASCKEIVDSYLPVILDIIKGEMSRPGEVCSALNLCESLQKHLAELNHQKQLESNKIPELDMTEVVAPFMANIPLLLYPQDGPRSKPQPKDNGDVCQDCIQMVTDIQTAVRTNSTFVQALVEHVKEECDRLGPGMADICKNYISQYSEIAIQMMMHMQPKEICALVGFCDEVKEMPMQTLVPAKVASKNVIPALELVEPIKKHEVPAKSDVYCEVCEFLVKEVTKLIDNNKTEKEILDAFDKMCSKLPKSLSEECQEVVDTYGSSILSILLEEVSPELVCSMLHLCSGTRLPALTVHVTQPKDGGFCEVCKKLVGYLDRNLEKNSTKQEILAALEKGCSFLPDPYQKQCDQFVAEYEPVLIEILVEVMDPSFVCLKIGACPSAHKPLLGTEKCIWGPSYWCQNTETAAQCNAVEHCKRHVWN
modifications: full-length

Key:
Chung model rats = assay: Tactile allodynia (von Frey 50% paw withdrawal threshold) in Chung model rats; assay type: in vivo, rat; details: any concentration tested, intrathecal
Description: The surgical procedure previously described by Kim and Chung, supra, 1992, was performed on male Sprague-Dawley rats weighing 120 to 150 grams to induce an allodynic state. Briefly, the rats were anesthetized with halothane; subsequently, the left L-5 and L-6 spinal nerves were isolated adjacent to the vertebral column and ligated with 6.0 silk suture distal to the dorsal root ganglion. After a ten to fourteen day post operative recovery period, a spinal catheter was introduced. Five days following the second surgery, intrathecal drug administration was accomplished using a gear driven micro-injection syringe connected to a spinal catheter inserted through the foramen magnum. Prior to testing, the rats were placed in clear plastic wire meshed cages and allowed to accommodate.
To assess the 50% mechanical threshold for paw withdrawal, a von Frey hair was applied to the hind foot avoiding the foot pad. Each of the von Frey hairs, which are calibrated to bend at increasing log forces, were pressed perpendicularly to the foot with sufficient force to cause slight bending for a duration of approximately six to eight seconds. A positive response was noted if the foot was sharply withdrawn. […] The X-axis indicates the time after the injection at which point the hypersensitivity to pressure on the foot pad was measured.

neurite outgrowth = details: cited from earlier work
neuroblastoma cells = details: cited from earlier work
[1] = test system: choline acetyltransferase activity; details: cited from earlier work

Molecule | side effects such as sedation (Chung model rats) | neurite outgrowth (neurite outgrowth) | cell death in neuroblastoma cells (neuroblastoma cells) | choline acetyltransferase activity [1]
CC[C@H](C)[C@H](NC(=O)[C@H](CCC(=O)O)NC(=O)[C@H](CCC(=O)O)NC(=O)[C@@H](NC(=O)[C@H](C)NC(=O)[C@H](CC(N)=O)NC(=O)[C@H](CC(N)=O)NC(=O)[C@H](CC(=O)O)NC(=O)[C@@H](NC(=O)[C@H](CC(C)C)NC(=O)[C@@H](C)NC(=O)[C@@H](N)[C@@H](C)O)[C@@H](C)CC)[C@@H](C)O)C(=O)N[C@@H](CC(C)C)C(=O)N[C@@H](Cc1ccc(O)cc1)C(=O)O [SEQ ID NO: 2, TXLIDNNATEEILY] (H-T[dA]LIDNNATEEILY-OH) | No side effects were observed |  |  | 
CC[C@H](C)[C@H](NC(=O)[C@H](CCC(=O)O)NC(=O)[C@H](CCCCN)NC(=O)[C@H](CCC(=O)O)NC(=O)[C@@H](NC(=O)[C@H](CCCCN)NC(=O)[C@H](CC(N)=O)NC(=O)[C@H](CC(N)=O)NC(=O)[C@H](CC(=O)O)NC(=O)[C@@H](NC(=O)[C@H](CC(C)C)NC(=O)[C@H](CCCCN)NC(=O)[C@@H](NC(=O)[C@@H](NC(=O)[C@H](CCC(=O)O)NC(=O)[C@H](CCCCN)NC(=O)[C@@H](NC(=O)[C@H](CC(C)C)NC(=O)[C@H](Cc1ccccc1)NC(=O)[C@H](CCC(=O)O)NC(=O)[C@@H](N)CS)C(C)C)C(C)C)[C@@H](C)O)[C@@H](C)CC)[C@@H](C)O)C(=O)N[C@@H](CC(C)C)C(=O)O [SEQ ID NO: 1] (H-CEFLVKEVTKLIDNNKTEKEIL-OH) | No significant side effects such as sedation were observed |  |  | 
B1 |  | stimulates motor neurite outgrowth in vitro and in vivo | prevents cell death | increases choline acetyltransferase activity
